Experimental data from the supplement of paper PMC11246515.
± gives the standard deviation of the averaged measurements.

Experiment: total protein half-life in vivo (active degradation + dilution); higher = more stable protein
[1] = E. coli NCM3722 delta-clpP delta-lon delta-hslV, growth: N-lim chemostat, doubling time 6 h
[2] = E. coli NCM3722 delta-clpP, growth: N-lim chemostat, doubling time 6 h
[3] = E. coli NCM3722 delta-hslV, growth: N-lim chemostat, doubling time 6 h
[4] = E. coli NCM3722 delta-lon, growth: N-lim chemostat, doubling time 6 h
[5] = E. coli NCM3722 delta-smpB, growth: N-lim chemostat, doubling time 6 h
[6] = wild type E. coli NCM3722, growth: C-lim chemostat, doubling time 3 h
[7] = wild type E. coli NCM3722, growth: C-lim chemostat, doubling time 6 h
[8] = wild type E. coli NCM3722, growth: C-lim chemostat, doubling time 12 h
[9] = wild type E. coli NCM3722, growth: N-lim chemostat, doubling time 6 h
[10] = wild type E. coli NCM3722, growth: N-lim chemostat, doubling time 12 h
[11] = wild type E. coli NCM3722, growth: P-lim chemostat, doubling time 6 h
[12] = wild type E. coli NCM3722, growth: P-lim chemostat, doubling time 12 h

MKRAFIMVLDSFGIGATEDAERFGDVGADTLGHIAEACAKGEADNGRKGPLNLPNLTRLGLAKAHEGSTGFIPAGMDGNAEVIGAYAWAHEMSSGKDTPSGHWEIAGVPVLFEWGYFSDHENSFPQELLDKLVERANLPGYLGNCHSSGTVILDQLGEEHMKTGKPIFYTSADSVFQIACHEETFGLDKLYELCEIAREELTNGGYNIGRVIARPFIGDKAGNFQRTGNRHDLAVEPPAPTVLQKLVDEKHGQVVSVGKIADIYANCGITKKVKATGLDALFDATIKEMKEAGDNTIVFTNFVDFDSSWGHRRDVAGYAAGLELFDRRLPELMSLLRDDDILILTADHGCDPTWTGTDHTREHIPVLVYGPKVKPGSLGHRETFADIGQTLAKYFGTSDMEYGKAMF [P0A6K6]
total protein half-life in vivo [1]: 4.63 ± 0.33 h
total protein half-life in vivo [2]: 4.5 ± 0.27 h
total protein half-life in vivo [3]: 4.39 ± 0.2 h
total protein half-life in vivo [4]: 4.1 ± 0.049 h
total protein half-life in vivo [5]: 3.41 ± 0.21 h
total protein half-life in vivo [6]: 2.41 ± 0.5 h
total protein half-life in vivo [7]: 4.68 ± 0.54 h
total protein half-life in vivo [8]: 9 ± 0.31 h
total protein half-life in vivo [9]: 4 ± 0.39 h
total protein half-life in vivo [10]: 6.61 ± 0.31 h
total protein half-life in vivo [11]: 3.91 ± 0.25 h
total protein half-life in vivo [12]: 7.26 ± 0.64 h

MKRAPLITGLLLISTSCAYASSGGCGADSTSGATNYSSVVDDVTVNQTDNVTGREFTSATLSSTNWQYACSCSAGKAVKLVYMVSPVLTTTGHQTGYYKLNDSLDIKTTLQANDIPGLTTDQVVSVNTRFTQIKNNTVYSAATQTGVCQGDTSRYGPVNIGANTTFTLYVTKPFLGSMTIPKTDIAVIKGAWVDGMGSPSTGDFHDLVKLSIQGNLTAPQSCKINQGDVIKVNFGFINGQKFTTRNAMPDGFTPVDFDITYDCGDTSKIKNSLQMRIDGTTGVVDQYNLVARRRSSDNVPDVGIRIENLGGGVANIPFQNGILPVDPSGHGTVNMRAWPVNLVGGELETGKFQGTATITVIVR
total protein half-life in vivo [2]: 5.21 h
total protein half-life in vivo [3]: 6.04 ± 0.24 h
total protein half-life in vivo [6]: 3.66 h
total protein half-life in vivo [7]: 6.25 ± 0.34 h
total protein half-life in vivo [8]: 11.5 h
total protein half-life in vivo [9]: 5.8 h
total protein half-life in vivo [10]: 14 h
total protein half-life in vivo [11]: 5.42 h
total protein half-life in vivo [12]: 13.3 h

MKRFSLAILALVVATGAQAASEKVEMNLVTSQGVGQSIGSVTITETDKGLEFSPDLKALPPGEHGFHIHAKGSCQPATKDGKASAAESAGGHLDPQNTGKHEGPEGAGHLGDLPALVVNNDGKATDAVIAPRLKSLDEIKDKALMVHVGGDNMSDQPKPLGGGGERYACGVIK [P0AGD1]
total protein half-life in vivo [1]: 5.72 ± 1.6 h
total protein half-life in vivo [2]: 6.84 ± 0.29 h
total protein half-life in vivo [3]: 6.36 ± 0.53 h
total protein half-life in vivo [4]: 6.86 ± 0.16 h
total protein half-life in vivo [5]: 5.11 ± 0.17 h
total protein half-life in vivo [6]: 2.81 ± 0.45 h
total protein half-life in vivo [7]: 6.27 ± 0.81 h
total protein half-life in vivo [8]: 10 ± 1.8 h
total protein half-life in vivo [9]: 6.57 ± 0.63 h
total protein half-life in vivo [10]: 11.8 ± 1.3 h
total protein half-life in vivo [11]: 5.69 ± 0.66 h
total protein half-life in vivo [12]: 11 ± 0.99 h

MKRLIVGISGASGAIYGVRLLQVLRDVTDIETHLVMSQAARQTLSLETDFSLREVQALADVTHDARDIAASISSGSFQTLGMVILPCSIKTLSGIVHSYTDGLLTRAADVVLKERRPLVLCVRETPLHLGHLRLMTQAAEIGAVIMPPVPAFYHRPQSLDDVINQTVNRVLDQFAITLPEDLFARWQGA [P0AG03]
total protein half-life in vivo [1]: 5.38 ± 0.31 h
total protein half-life in vivo [2]: 4.35 ± 0.49 h
total protein half-life in vivo [3]: 4.3 ± 0.56 h
total protein half-life in vivo [4]: 4.77 ± 0.86 h
total protein half-life in vivo [5]: 4.678 ± 0.041 h
total protein half-life in vivo [6]: 3.22 ± 0.35 h
total protein half-life in vivo [7]: 6.52 ± 0.94 h
total protein half-life in vivo [8]: 11.2 ± 1.5 h
total protein half-life in vivo [9]: 4.09 ± 0.35 h
total protein half-life in vivo [10]: 7.54 ± 1 h
total protein half-life in vivo [11]: 5.53 ± 0.22 h
total protein half-life in vivo [12]: 11.9 ± 0.56 h

MKRNLLSSAIIVAIMSLGLTGCDDKKAETETLPPANSQPAAPAPEAKPTEAPVAKAEAKPETPAQPVVDEQAVFDEKMDVYIKCYNKLQIPVQRSLARYADWLKDFKQGPTGEERTVYGIYGISESNLAECEKGVKSAVALTPALQPIDGVAVSYIDAAVALGNTINEMDKYYTQENYKDDAFAKGKTLHQTFLKNLEAFEPVAESYHAAIQEINDKRQLAELKNIEEREGKTFHYYSLAVMISAKQINNLISQDKFDAEAAMKKVSELETLVAQAKEADKGGMNFSFINSAGQYQLEAKKYVRRIRDKVPYSDWDKEQLQDANSSWMVEDSFPRALREYNEMVDDYNSLR
total protein half-life in vivo [1]: 6 h
total protein half-life in vivo [5]: 5.67 ± 0.5 h
total protein half-life in vivo [7]: 6.58 h
total protein half-life in vivo [9]: 6.45 h
total protein half-life in vivo [10]: 10.5 h
total protein half-life in vivo [11]: 5.81 ± 0.094 h
total protein half-life in vivo [12]: 10 h

MKRNTKIALVMMALSAMAMGSTSAFAHGGHGMWQQNAAPLTSEQQTAWQKIHNDFYAQSSALQQQLVTKRYEYNALLAANPPDSSKINAVAKEMENLRQSLDELRVKRDIAMAEAGIPRGAGMGMGYGGCGGGGHMGMGHW [P0AAA9]
total protein half-life in vivo [10]: 13 h

MKRQKRDRLERAHQRGYQAGIAGRSKEMCPYQTLNQRSQWLGGWREAMADRVVMA [P0AFW2]
total protein half-life in vivo [1]: 0.535 h
total protein half-life in vivo [2]: 0.588 h
total protein half-life in vivo [3]: 0.382 h
total protein half-life in vivo [4]: 0.441 h
total protein half-life in vivo [5]: 0.472 ± 0.2 h
total protein half-life in vivo [7]: 0.0712 h
total protein half-life in vivo [8]: 0.0514 ± 0.073 h
total protein half-life in vivo [9]: 0.352 h
total protein half-life in vivo [10]: 0.686 ± 0.26 h
total protein half-life in vivo [12]: 1.16 h

MKRRLIIAASLFVFNLSSGFAAENIPFSPQPPEIHAGSWVLMDYTTGQILTAGNEHQQRNPASLTKLMTGYVVDRAIDSHRITPDDIVTVGRDAWAKDNPVFVGSSLMFLKEGDRVSVRDLSRGLIVDSGNDACVALADYIAGGQRQFVEMMNNYAEKLHLKDTHFETVHGLDAPGQHSSAYDLAVLSRAIIHGEPEFYHMYSEKSLTWNGITQQNRNGLLWDKTMNVDGLKTGHTSGAGFNLIASAVDGQRRLIAVVMGADSAKGREEEARKLLRWGQQNFTTVQILHRGKKVGTERIWYGDKENIDLGTEQEFWMVLPKAEIPHIKAKYTLDGKELTAPISAHQRVGEIELYDRDKQVAHWPLVTLESVGEGSMFSRLSDYFHHKA
total protein half-life in vivo [9]: 7.4 h

MKRTMLYLSLLAVSCSVSAAKYPVLTESSPEKAGFNVERLNQMDRWISQQVDVGYPSVNLLIIKDNQIVYRKAWGAAKKYDGSVLMEQPVKATTGTLYDLASNTKMYATNFALQKLMSEGKLHPDDRIAKYIPGFADSPNDTIKGKNTLRISDLLHHSGGFPADPQYPNKAVAGALYSQDKGQTLEMIKRTPLEYQPGSKHIYSDVDYMLLGFIVESVTGQPLDRYVEESIYRPLGLTHTVFNPLLKGFKPQQIAATELNGNTRDGVIHFPNIRTSTLWGQVHDEKAFYSMGGVSGHAGLFSNTGDIAVLMQTMLNGGGYGDVQLFNAETVKMFTTSSKEDATFGLGWRVNGNATMTPTFGTLASPQTYGHTGWTGTVTVIDPVNHMTIVMLSNKPHSPVADPQKNPNMFESGQLPIATYGWVVDQVYAALKQK
total protein half-life in vivo [1]: 6.01 ± 1.4 h
total protein half-life in vivo [4]: 5.56 ± 0.55 h
total protein half-life in vivo [5]: 5.13 ± 0.61 h
total protein half-life in vivo [6]: 3.15 ± 0.17 h
total protein half-life in vivo [7]: 6.3 ± 0.47 h
total protein half-life in vivo [8]: 10.4 ± 1.3 h
total protein half-life in vivo [9]: 5.42 ± 0.84 h
total protein half-life in vivo [10]: 11.2 ± 0.13 h
total protein half-life in vivo [11]: 5.84 ± 0.99 h

MKRVLFFLLMIFVSFGVIADCEIQAKDHDCFTIFAKGTIFSAFPVLNNKAMWRWYQNEDIGEYYWQTELGTCKNNKFTPSGARLLIRVGSLRLNENHAIKGTLQELINTAEKTAFLGDRFRSYIRAGIYQKKSSDPVQLLAVLDNSIMVKYFKDEKPTYARMTAHLPNKNESYECLIKIQHELIRSEEK
total protein half-life in vivo [1]: 1.81 h
total protein half-life in vivo [5]: 1.13 h
total protein half-life in vivo [8]: 10.3 h
total protein half-life in vivo [10]: 4.57 h
